Test results: the supplement of paper PMC9942255

Tested on: Bacillus subtilis DB104 (SP-AmyQ fusion secretion)
Assay: AmyQ secretion efficiency, weighted average sort bin (1 = best secretion, 10 = worst) (bin number (weighted average, 1-10)); higher = lower secretion efficiency
How it was run: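 A B. subtilis DB104 library carrying amyE-integrated fusions of designed signal peptides to mature AmyQ was encapsulated at about 0.3 cells per ~65 nL alginate bead with fluorescein-starch and grown about 13 h at room temperature. Following nile red staining, occupied beads were flow-sorted as large particles into 10 equally populated bins by green/red fluorescence ratio, and the bin amplicons were Illumina-sequenced. The secretion score is the read-frequency-weighted average bin number normalised to beads per bin, leaving out low-abundance sequences.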

Row | Sequence | AmyQ secretion efficiency
1 | MKKIMSARKRRRKLTIFCFSPQASAAYD | 6.63
2 | MKKKLAAGLTASAIVGTTLVVVFAEAATI | 6.57
3 | MKKAKRVFLSVVLVTTVFLVKQQESVAQAKQL | 3.28
4 | MKLAKRVSALTPSTTLAITAKTKEL | 7.68
5 | MTKLKMLSMLTVMIASLFIFSSQALSVQY | 2.56
6 | MLKRTSFVSSSSLFISSAVLLSILLPSGQAHAQSA | 1.71
7 | MKRLLVSLRVWMVFLMNWVTPDRKTAASAVY | 6.03
8 | MKKAAAVLLSLGLVFGFSYGAGHVHEAKTK | 5.32
9 | MLKKKWMVFLLAICLAAFGFSYNAFATEN | 3.29
10 | MRSYIKVLTMCFLGLILFVPTGLADNS | 1.86
11 | MKKKLAAGLTASAIVGTTLVVAEAATI | 5.78
12 | MRGKSAVLLSLIMLIAGFLIWFSFQM | 7.55
13 | MKNMSCKLVVSVTLFFSFLTIGPLMHAQNS | 1.39
14 | MKKAAAVLLSLGLVFVFVYGAGHVAEAKTK | 2.4
15 | MKRFSTAYLLLGILCSAAVFLIGAPSRCLGAEV | 3.15
16 | MHRRRKAAGAVCLAVVLIAGCRFNEDQHQAEGENT | 4.73
17 | MLKKIALTLCPAIVGSLLFFTAPASADEE | 3.58
18 | MKIRKILLSSALSFGMLISAVPALTAGT | 4.42
19 | MHLIRAAGAVCLAVVLIAGCRFNEDQHQAENENT | 5.95
20 | MKSKGSIMACLILFSFTITTFINTETSSVFTPISAFSN | 6.5
21 | MKRFSTAYLLLGILCSAAVFLIGAPSRALAAEV | 2.35
22 | MKNMSCKLVVSVTLFFTIGPLAHAQNS | 2.62
23 | MKLRKVLTGSVLSLGLLEKDSPAFATSP | 6.38
24 | MKLAKRVSALTPSTTLAITYKAKEL | 6.96
25 | MKLKSKLLLSCLALSTVFVATTIANHPTH | 4.89
26 | MLKKKWMVGLLAGCLAAGRKKKKKAFATEN | 7.31

Row | Sequence | AmyQ secretion efficiency
27 | MMIKQCVICLSLLVFGTIAIAHAEET | 4.16
28 | MKKLIQVMIMFTLLLTMAFSADAADS | 4.44
29 | MRIFKKAVFVIMISFLIATVNVNTAHGAID | 5.43
30 | MSTLVLCVSILAVILSGVALTQLS | 6.38
31 | MPIFKKVMMCLAVTLVFGSMSFPTLTNSGGFKE | 6.15
32 | MPYLKRVLLLLVTGLFMSLFAVTATASKQTG | 1.26
33 | MKKLLAAGIIGLLTVSSFAAEK | 6.74
34 | MMKKLFHSTLIVLLFFSFFGVRKKRRKIHAKKQ | 6.23
35 | MSLITFSLIITSAIIIAIIAAVIVIAALITFNVRNASPG | 7.04
36 | MTKLKMLSMLTVMIASLFIFSSQTLAVQY | 2.28
37 | MFNRLFRVCFLAALIMAFTLPNSKYAQKP | 6.56
38 | MKKAFLVFLSVVLVTTVFLVKQQESVAQGKQL | 3.58
39 | MKLSVKIAGVLTVAAAAMTAKMYLTAKGN | 7.31
40 | MKNMSCKLVVSVTLFFSFLTIGPLAHAQNR | 1.47
41 | MKRLLSTLLIGIMLLVTFAPSAFAKQD | 2.15
42 | MNLRKILLSSALSLGMLVSAAPVLQTSS | 5.33
43 | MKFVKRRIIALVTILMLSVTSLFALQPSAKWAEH | 5.19
44 | MRGKSAVLLSLIMLIAGFLISFPFQM | 5.95
45 | MKRLLSTLLIGIMLLEDEPSAFAKQD | 1.9
46 | MRYFSKAVFVIMISFLIATVNVNTAHAAID | 5.65
47 | MKKRRVLMAFIICLSLILSVLAAPPSGAKAESV | 1.87
48 | MKWMCSICCAAVLLAGGAAQLEAV | 3.67
49 | MKRITINIITMFIAAAVIVFSLTGTAEAAEK | 2.39
50 | MGLGKKNLNTMFLSVAVAASFMSLSISLPGVQAAEG | 2.66
51 | MSTMIVRMTLPLLIVCLAFSSFSASARAASE | 2.3
52 | MKKAFILSAAAAVGLFTFGGVQQASMKEL | 5.04

Row | Sequence | AmyQ secretion efficiency
53 | MKSKGSIMSCLILFSFTITTFINTETISAFSN | 3.29
54 | MKKAFLVFLSVVLVTTVFLVKQQESVSGAQAKQL | 4.03
55 | MAIIIAIIAAVIVIAALITFTSNVRNASPG | 7.45
56 | MRSKKLWISLLFALTLIRKRKKRNMSAQAAGK | 9.84
57 | MFKKHTISLLIIFLLASAVLAKPPPTTATIEAHTV | 7.2
58 | MKTKTLFIFSAILTLSIRKPNRTFAQTA | 6.8
59 | MRKKLKWLSFLLGFIILLFLFKYQFSNNKR | 5.8
60 | MLKRTSFVSSLKKSSAVLLSILLPSGQAHAQSA | 3.11
61 | MRKYTVIASILLSFLSVLSGGHHESKARRR | 7.19
62 | MFKKHTISLLIIFLLASAVLAKPIEPHTV | 7.19
63 | MKKRLIGFLVLVPALIMSGITLIEANSE | 7.68
64 | MLGIRLLTIYIMLLGLIAWFPGAAQAEEK | 2.38
65 | MTKLKMLSMLTVMIASLFIFSKRRALAVQY | 6.11
66 | MLKKIALTLCPAIVGSLLFFTDEDDEEASAHVS | 5.14
67 | MKTLRTLCVLMILSGVIFFGLKIDRKDI | 5.46
68 | MKKRLIGFLVLVPALIMSGITLREANKK | 7.02
69 | MKLKSKLFVICLAAATAAGVSANAEALDF | 5.89
70 | MPYLKRVLLLLVTGLFMSLFAVTATGSAQTG | 1.13
71 | MKLWMRKTLVVLFTIVTFGLVSPPAAVMADKP | 2.79
72 | MKKLRKKKIIGLLTVSIASPSFAAEK | 7.35
73 | MRKNRRGKQGTLSLGLLSFMVTPVSAASK | 7.32
74 | MPYLKRVLLLLVFFLFMFLFSAVTATASAQTG | 1.35
75 | MPYLKRVLLLLVTGLFMSLFFLIAVTATASAQTG | 1.09
76 | MTMLRKIIGWILLLCIIPLFAFTVIASTKEV | 7.17
77 | MRKFLKSNFRFLLAAALGISLLASSNFIKASND | 4.13
78 | MGLGKKLSVAVAASFMSLSISLPGQQAAEG | 3.99

Row | Sequence | AmyQ secretion efficiency
79 | MTKLKMLSMRSRMIASLFIFSSQALAVQY | 3.8
80 | MRSYIKSKKRCKQQLILFVPTALADNS | 7.44
81 | MKLAKRVSALTPSTTLAITVKAKEL | 6.82
82 | MKLAKRVSALTPSTTLAITWKAKEL | 5.85
83 | MKLKKRVSMFLVALTMCGGLFVTAAKAVKT | 4.92
84 | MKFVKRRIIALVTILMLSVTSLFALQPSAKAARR | 1.74
85 | MFKKHTISLLIIFLLAEAVLAEPIEAHTV | 2.51
86 | MKVCQKSIVRFLVSLIIGTFVITSVPFMANAQSD | 3
87 | MKKMLMLAFTFLLALTIHVGEASAVRK | 2.01
88 | MKKRLIAPMLLSAASLAFFAMSGSHQAAAY | 5.04
89 | MKLAKRVSALTPSTTLAITAKLKEL | 6.8
90 | MKKWLKRKKSLAIAIVLFMYTKGEAKAAGM | 7.31
91 | MKKGKRTRTIGLLTVSIASPSFAAEK | 6.26
92 | MKWMCSICCAAVLLAGGAQAEAV | 3.54
93 | MKKRLIAPMLLSAASLAFFAALIFILLLTFMSGSAQAAAY | 3.37
94 | MNKLKRLSMLTVMIASVFIFSSSALAAQY | 2.06
95 | MTTKFTALAVFLLCFMPAAKIKRKHTQASLL | 7.32
96 | MKRVCLTALLSVLLVAGSVPFHAEAKKP | 2.1
97 | MKKRFSLIMMTGLLFGLTSPAFAASN | 2.36
98 | MKKWRYTKRQRKLILAGIALFVFISPLKSHKT | 6.51
99 | MRPVFPLILSAVLFLSCFFGARQTEASSSKR | 3.03
100 | MAIIIAIIAAVIVIAALITFNVRNASKR | 7.12
101 | MMIKQCVICLSLLVFGTEEDAHAEET | 3.44
102 | MKKRLIAPMLLSAASLAFMSGSAQAAAY | 3.31
103 | MLKKKWMVGLLAGCLAAGGFSYNNFATEN | 6.75
104 | MKKRLIAPMLLSAASLAFFAMSGSAQAAEE | 2.23

Row | Sequence | AmyQ secretion efficiency
105 | MRMLWRSSSQCGLALTLAPCAQAAEP | 8.18
106 | MRPVFPLILSAVLFLSCFFIAGATEASASKR | 3.68
107 | MLCVMMLLFSAIASFPVSNQAKDQ | 5.37
108 | MKVLLSALLLLLFAFEPSASWKKL | 5.1
109 | MPYLKRVLLLLVTGLFMSLFAVTATASAQTD | 1.91
110 | MKKLVLCVSILAVILKRKRKKALTQLS | 6.12
111 | MKKQIITATTAVVLGSTLFAVGAASAQSI | 2.23
112 | MKVLLSALLLLLFAFAASASGKKL | 6.06
113 | MKKKQVMLALTAAAGLGLTALVFFHSAPAAKAAPL | 2.39
114 | MTSGTLWISLLFALTLIFTMAFSNMSAQAAGK | 2.62
115 | MNLRKILLSSALSLGMLVSAAPQLATSS | 4.11
116 | MKKRRAIIIAIIAAVIVIAALITFNVRNASPG | 5.35
117 | MKRRRRKLLSTLLIGIMLLTFAPSAFAKQD | 1.81
118 | MMTMLFHSTLIVLLFFSFFGVQPIHAKKQ | 2.1
119 | MKKSSYCSYQRQVILSGVALTQLS | 7.04
120 | MTMLRKIIGWILLLCIIPLFAFTVIISGKEV | 5.66
121 | MKKGIIRFLLVSFVLFFALKKRITGVQAAPA | 6.43
122 | MGTLTTLTSLLLAGLCTAAQMVFVTHASAEES | 3.24
123 | MKRMIVRMTLPLLIVCLAFSKKSASARAASE | 7.39
124 | MKKIGLLFMLCLAALRRRKRKRQQADAAEA | 6.59
125 | MKKRLIAPMLKRRKSLAFFAMSGSAQAAAY | 7.31
126 | MKLRKVLTGSVLSLGLLRKKSPAFATSP | 8.19
127 | MKKGIIRFLLVSFVLFFALSTGITGVQLAPA | 5.59
